{
  "source": "patent US6713057B1",
  "about": "“Compositions and methods for modulating serum cholesterol” (The Johns Hopkins University, priority 1999, dated 2004)",
  "molecules": {"B1": {"name": "EGF: human recombinant EGF from Upstate Biotechnology (protein, UniProt P01133 23-1207, looked up)", "Pro-epidermal growth factor": "PQHWSCPEGTLAGNGNSTCVGPAPFLIFSHGNSIFRIDTEGTNYEQLVVDAGVSVIMDFHYNEKRIYWVDLERQLLQRVFLNGSRQERVCNIEKNVSGMAINWINEEVIWSNQQEGIITVTDMKGNNSHILLSALKYPANVAVDPVERFIFWSSEVAGSLYRADLDGVGVKALLETSEKITAVSLDVLDKRLFWIQYNREGSNSLICSCDYDGGSVHISKHPTQHNLFAMSLFGDRIFYSTWKMKTIWIANKHTGKDMVRINLHSSFVPLGELKVVHPLAQPKAEDDTWEPEQKLCKLRKGNCSSTVCGQDLQSHLCMCAEGYALSRDRKYCEDVNECAFWNHGCTLGCKNTPGSYYCTCPVGFVLLPDGKRCHQLVSCPRNVSECSHDCVLTSEGPLCFCPEGSVLERDGKTCSGCSSPDNGGCSQLCVPLSPVSWECDCFPGYDLQLDEKSCAASGPQPFLLFANSQDIRHMHFDGTDYGTLLSQQMGMVYALDHDPVENKIYFAHTALKWIERANMDGSQRERLIEEGVDVPEGLAVDWIGRRFYWTDRGKSLIGRSDLNGKRSKIITKENISQPRGIAVHPMAKRLFWTDTGINPRIESSSLQGLGRLVIASSDLIWPSGITIDFLTDKLYWCDAKQSVIEMANLDGSKRRRLTQNDVGHPFAVAVFEDYVWFSDWAMPSVMRVNKRTGKDRVRLQGSMLKPSSLVVVHPLAKPGADPCLYQNGGCEHICKKRLGTAWCSCREGFMKASDGKTCLALDGHQLLAGGEVDLKNQVTPLDILSKTRVSEDNITESQHMLVAEIMVSDQDDCAPVGCSMYARCISEGEDATCQCLKGFAGDGKLCSDIDECEMGVPVCPPASSKCINTEGGYVCRCSEGYQGDGIHCLDIDECQLGEHSCGENASCTNTEGGYTCMCAGRLSEPGLICPDSTPPPHLREDDHHYSVRNSDSECPLSHDGYCLHDGVCMYIEALDKYACNCVVGYIGERCQYRDLKWWELRHAGHGQQQKVIVVAVCVVVLVMLLLLSLWGAHYYRTQKLLSKNPKNPYEESSRDVRSRRPADTEDGMSSCPQPWFVVIKEHQDLKNGGQPVAGEDGQAADGSMQPTSWRQEPQLCGMGTEQGCWIPVSSDKGSCPQVMERSFHMPSYGTQTLEGGVEKPHSLLSANPLWQQRALDPPHQMELTQ", "modifications": "Pro-epidermal growth factor", "notes": "human recombinant EGF from Upstate Biotechnology"}},
  "system": "SREBP-1",
  "assay": "SREBP-1 proteolysis (maturation) assay, Western immunoblot of nuclear fractions, HH-25 hepatocytes",
  "format": "cell-based, human",
  "conditions": "HH-25 hepatocytes, sterol independent",
  "description": "FIGS. 2A-2C illustrate effects of TNF-α sphingomyelinase and C2-ceramide on the kinetics of SREBP-1 maturation—FIGS. 2A-2C is explained in more detail as follows: Cells were maintained in media supplemented with 1 μg/ml 25-hydroxy cholesterol and 15 μg/ml cholesterol for 24 hours before the experiment. The cells were treated for the indicated time as described in materials and methods. The cells were then harvested in PBS, pelleted and frozen. Lysis and nuclear fractionation were performed as described. Nuclear fractions (50 μg of protein) were electrophoresed on a 7.5% polyacrylamide gel and transferred to a PVDF membrane. Western blotting was performed as described. Band intensity was quantified via densitometry. Error bars represent ±one standard deviation from the mean. 2A) The kinetics of SREBP maturation as measured by the increase in mature SREBP-1 are plotted. Fold increase was calculated by comparing each time point to the corresponding control value (TNF-α is represented by stippled bars, bacterial sphingomyelinase is represented by light gray bars and C2-ceramide by the dark bars.) 2B) Cells were treated with TNF-α (10 ng/ml) and prepared as described above. The bands corresponding to the precursor and mature forms of SREBP-1 were quantified and their ratio plotted. 2C) Representative Western blots from which numerical data was derived. […]",
  "data": [
    {"molecule": "B1", "values": [
      {"measurement": "induction of SREBP-1 maturation (increase in mature SREBP-1), in words", "value": "could not be recapitulated"}
    ]}
  ]
}
